For 1 molecule, Kd, koff and kon results are on record in US20190225669A1 (ACCELERON PHARMA, published 2019).

Read-outs that look alike come from different tables or passages of the source.

One assay has as its target T1, BMP6 (UniProt P22004 382-513, limits assumed).
T1 sequence (looked up): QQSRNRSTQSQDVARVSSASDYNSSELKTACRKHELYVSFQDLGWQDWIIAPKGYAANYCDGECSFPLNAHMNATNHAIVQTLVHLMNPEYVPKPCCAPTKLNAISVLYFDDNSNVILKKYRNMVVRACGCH
The assay is described as follows: Biacore SPR; kinetics indeterminate (transient). On the technique in general: SPR reads the build-up and loss of mass on a sensor chip optically.

The target in assay [1] is T2, BMP7 (UniProt P18075 293-431).
T2 sequence (looked up): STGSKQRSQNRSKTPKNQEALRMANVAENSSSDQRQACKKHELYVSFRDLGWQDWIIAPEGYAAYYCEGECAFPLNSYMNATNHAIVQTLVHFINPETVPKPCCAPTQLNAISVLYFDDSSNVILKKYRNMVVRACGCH
Put plainly: Biacore SPR; kinetics indeterminate (transient).

The target in assay [2] is T3, BMP15 (UniProt O95972 268-392).
T3 construct: also called GDF9b
T3 sequence (looked up): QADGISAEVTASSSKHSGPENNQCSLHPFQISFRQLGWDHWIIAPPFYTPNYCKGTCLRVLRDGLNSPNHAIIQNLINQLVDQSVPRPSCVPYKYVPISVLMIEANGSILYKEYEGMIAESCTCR
The assay is described as follows: Biacore SPR. The protocol:
(§1) Ligands were injected and allowed to flow over the captured receptor protein.

Assay [3] concerns the target T3, BMP15. Put plainly: Biacore SPR. As to the method: as §1
The source holds these as a separate data set.

The next assay has as its target T4, BMP5 (UniProt P22003 317-454, limits assumed).
T4 sequence (looked up): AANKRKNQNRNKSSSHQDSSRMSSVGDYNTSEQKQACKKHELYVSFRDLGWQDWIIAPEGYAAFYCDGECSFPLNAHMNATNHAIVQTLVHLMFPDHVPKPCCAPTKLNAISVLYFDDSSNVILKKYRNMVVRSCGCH
The assay is described as follows: Biacore SPR. As to the method: (§2) A Biacore™-based binding assay was used to compare ligand binding selectivity of the BMPRII-Fc:ALK2-Fc heterodimeric complex described above with that of BMPRII-Fc and ALK2-Fc homodimeric complexes. […] Ligands were injected and allowed to flow over the captured receptor protein.

Assay [4] addresses T3, BMP15. Put plainly: Biacore SPR. As to the method:
as §2
The source holds these as a separate data set.

Assay [5] has as its target T3, BMP15. Put plainly: Biacore SPR. The protocol:
as §1
The source holds these as a separate data set.

Assay [6] concerns the target T2, BMP7. Put plainly: Biacore SPR; kinetics indeterminate (transient). As to the method:
as §2
This is another data set of the same source.

B1: BMPRII-Fc homodimer (Fc fusion, UniProt Q13873 27-150, looked up, not shown: a dimerising Fc or GST)
chain: SQNQERLCAFKDPYQQDLGIGESRISHENGTILCSKGSTCYGLWEKSKGDINLVKQGCWSHIGDPQECHYEECVVTTTPPSIQNGTYRFCCCSTDLCNVNFTENFPPPDTTPLSPPHSFNRDET
notes: extracellular domain
A word on the Kd: it is the free concentration of one partner at which half of the binding sites on the other are occupied at equilibrium, for simple one-to-one binding. One may read the koff as the first-order rate constant of dissociation. As a reminder, the kon is the rate constant with which the complex forms. A lower kon goes with slower complex formation. Regarding B1, the equilibrium dissociation constant (Kd) with BMP6 was over 8.9 nM; with BMP7 [1], over 38 nM; with BMP15 [2], 0.29 nM; with BMP15 [3], 0.29 nM; with BMP5, 9.9 nM; in the assay with BMP15 [4], 0.72 nM. Further, the dissociation constant (Kd) in the assay with BMP15 [5] is 0.29 nM; in the assay with BMP7 [6] it was over 93 nM. Also, the koff with BMP15 [2] is 0.0028 s⁻¹; in the assay with BMP15 [3], 0.0028 s⁻¹; with BMP5 it was 0.019 s⁻¹; with BMP15 [4] it was 0.0042 s⁻¹; with BMP15 [5] it was 0.0028 s⁻¹. Moreover, the on-rate (kon) with BMP15 [2] was 9.9e+06 M⁻¹ s⁻¹; in the assay with BMP15 [3] it was 9.9e+06 M⁻¹ s⁻¹; with BMP5, 1.9e+06 M⁻¹ s⁻¹; with BMP15 [4], 5.8e+06 M⁻¹ s⁻¹; in the assay with BMP15 [5], 9.9e+06 M⁻¹ s⁻¹.
